These results are taken from patent publication US20250332297A1, “DLL3-SPECIFIC BINDING CONSTRUCTS AND THEIR USE IN RADIOTHERAPY” (MOLECULAR PARTNERS AG, priority 2024, published 2025).

Series [1] in a line: Pharmacokinetic analysis in WT BALBc mice (serum, ELISA). The class given is in vivo, mouse. The source says:
The pharmacokinetic (PK) properties of lead-labelled DARPin (MAM160, MAM279, MAM282, MAM283) conjugates were investigated in mice, including to determine the terminal half-life (or serum half-life) of these conjugates.
In brief, DARPins MAM279, MAM283, MAM160 and MAM282 were conjugated to the chelator DOTAM, via a C-terminal Cysteine containing tag and a connector, as described in Example 3. The conjugates were then labelled with natural lead (Pb). The protein components of the conjugates corresponded to SEQ ID NOs: 15 to 18, respectively. These lead-labelled DARPin conjugates were injected i.v. at 1 mg/kg into WT BALBc mice. Serum was collected 2 min, 10 min, 30 min, 1 h, 4 h, 24 h, 48 h, and 72 h post-injection. DARPins were detected and measured by ELISA. The data were expressed as the DARPin concentration in serum (nmol/L).
In brief, lead-labelled MAM279 conjugate, as described in Example 13, was injected i. at 0.1 mg/kg or at 1 mg/kg into the tail vein of WT BALBc mice. Serum was collected 2 min, 10 min, 30 min, 1 h, 4 h, 24 h, 48 h, and 72 h post-injection for MAM279 conjugate injected at 1 mg/kg, and 2 min, 30 min, 4 h, 24 h, 30 h, 48 h, 72 h, 96 h, and 168 h post-injection for MAM279 conjugate injected at 0.1 mg/kg. DARPins were detected and measured by ELISA. The data were expressed as the DARPin concentration in serum (nmol/L).
In brief, natural lead-labelled MAM279 conjugate, as described in Example 13, was injected i.v. at different doses (0.001 mg/kg, 0.01 mg/kg, 0.1 mg/kg, or 1 mg/kg) into the tail vein of WT BALBc mice. Similarly, unconjugated Rova was injected iv. at 1 mg/kg into the tail vein of WT BALBc mice. Serum was collected 2 min, 10 min, 30 min, 1 h, 4 h, 24 h, 48 h, and 72 h post-injection for MAM279 conjugate injected at 1 mg/kg, and 2 min, 30 min, 4 h, 24 h, 30 h, 48 h, 72 h, 96 h, and 168 h post-injection for MAM279 conjugate injected at 0.1 mg/kg, 0.01 mg/kg and 0.001 mg/kg. Serum was collected 2 min, 30 min, 4 h, 24 h, 30 h, 48 h, 72 h, 96 h, and 168 h post-injection for Rova antibody injected at 1 mg/kg. DARPins and Rova were detected and measured by ELISA. Rova PK characteristics were calculated with time points between 4 h and 168 h and MAM279 conjugate PK characteristics were calculated with time points between 4 h and 72 h. The data were expressed as the DARPin or Rova concentration in serum (nmol/L). Results are shown in FIGS. 19A and 19B and Table 22.
A general note: In an ELISA, binding on a coated surface is turned into a signal by an enzyme label.

The target of series [2] is T1, human DLL3 expressed on HEK293T-huDLL3 cells (Homo sapiens, UniProt Q9NYJ7).
T1 construct: expressed in transfected cells; host or cells: HEK293T-hDLL3
T1 sequence (Q9NYJ7 27-618): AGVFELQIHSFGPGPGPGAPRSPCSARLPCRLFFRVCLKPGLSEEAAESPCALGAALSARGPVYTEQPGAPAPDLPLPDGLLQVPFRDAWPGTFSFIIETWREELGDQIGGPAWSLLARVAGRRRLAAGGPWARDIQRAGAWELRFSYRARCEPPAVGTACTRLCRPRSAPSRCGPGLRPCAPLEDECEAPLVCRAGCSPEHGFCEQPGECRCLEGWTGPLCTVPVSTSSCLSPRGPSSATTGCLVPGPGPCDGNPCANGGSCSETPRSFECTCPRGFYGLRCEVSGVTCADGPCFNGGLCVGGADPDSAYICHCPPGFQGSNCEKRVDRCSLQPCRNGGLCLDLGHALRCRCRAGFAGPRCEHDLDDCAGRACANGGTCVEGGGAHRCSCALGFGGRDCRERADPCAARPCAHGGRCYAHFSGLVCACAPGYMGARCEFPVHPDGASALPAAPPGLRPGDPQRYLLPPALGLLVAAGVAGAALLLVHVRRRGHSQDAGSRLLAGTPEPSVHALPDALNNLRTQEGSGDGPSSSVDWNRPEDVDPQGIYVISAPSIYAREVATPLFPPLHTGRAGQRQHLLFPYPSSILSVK
In words: Cell binding titration on HEK293T-hDLL3 cells. The conditions noted are these: presence of human serum albumin (10 μM in FIG. 9 legend, 10 pM in the source), read-out: Cell binding EC50, with HSA. The format is cell-based.

The target of series [3] is human serum albumin (Homo sapiens, UniProt P02768). Put plainly: SPR binding to human serum albumin (Example 1). On the set-up: purchased CSL. The note with it: immobilized HSA, 1:1 Langmuir, Table 2. On the procedure: Similarly, a SPR assay was used to determine the binding kinetics to human or mouse serum albumin. […] All analytes (3-fold dilution ranging from 1000-12.35 nM) were injected in succession for 240 s (25 μl/min) and dissociation was recorded for 600 s (25 μl/min). […] The obtained SPR traces were used to determine the ankyrin repeat protein-serum albumin interaction parameters, summarized in Table 2.

[4] abbreviates: 1 mg/kg i.v., MAM279 natural lead-labelled conjugate (time points 4-72 h), Rova unconjugated (4-168 h), Table 22.
[5] abbreviates: 1 mg/kg i.v., MAM279 natural lead-labelled conjugate, Rova unconjugated, Table 22.
Setting [6] is: natural lead-labelled DOTAM conjugate 1 mg/kg i.v., Tables 16, 17.

The Cmax is the highest concentration seen after dosing. Usually Tmax stands for the time from dosing to the highest level. The term EC50 denotes the midpoint of the concentration-response curve. The term Kd denotes a measure of binding affinity in units of concentration. A lower Kd goes with tighter binding.

B1: Rova: Rova antibody, DLL3-binding benchmark antibody used as positive control and comparison (antibody, chains of the INN, looked up, V domains shown)
VH: QVQLVQSGAEVKKPGASVKVSCKASGYTFTNYGMNWVRQAPGQGLEWMGWINTYTGEPTYADDFKGRVTMTTDTSTSTAYMELRSLRSDDTAVYYCARIGDSSPSDYWGQGTLVTVSS
VL: EIVMTQSPATLSVSPGERATLSCKASQSVSNDVVWYQQKPGQAPRLLIYYASNRYTGIPARFSGSGSGTEFTLTISSLQSEDFAVYYCQQDYTSPWTFGQGTKLEIK
Take B1: the serum half-life result in series [1] (1 mg/kg i.v.) was “about 145 hours”. In series [1] (setting [4]), this molecule gave an AUCINF_pre of 11.9183 µM·h, an AUClast of 6636.1 h*hr*nmol/L and an HL_Lambda_z of 145.8 h. In series [1] (setting [5]), this molecule showed an AUC_%Back_Ext_pre of 0%, an AUC_%Extrap_Pred of 44%, a Cl_pred of 14 mL/day/kg and a Cmax of 130 nM. In series [1] (setting [5]), the Tmax is 1.98 min and the Vss_pred is on record as 0.12 L/kg. Moreover, the EC50 in series [2] was found to be 0.3 nM.

B2: MAM160: Two domain (2D) ankyrin repeat protein: serum albumin-specific domain (SEQ ID NO: 7), PT linker, DLL3-specific domain MAM120 (protein)
chain: DLGKKLLEAARAGQDDEVRELLKAGADVNAKDYFSHTPLHLAARNGHLKIVEVLLKAGADVNAKDFAGKTPLHLAADAGHLEIVEVLLKAGADVNAQDIFGKTPADIAADAGHEDIAEVLQKAAGSPTPTPTTPTPTPTTPTPTPTGSDLGTKLLSAAADGQDDEVRELLQAGADVNAKDLFGYTPLHLAAWRGHLEIVEVLLEAGADVNAKDAAGLTPLHLAAWFGHLEIVEVLLEAGADVNAQDVQGVTPADLAAKEGHEDIAEVLQQAA
modifications: Ankyrin repeat protein (MAM160)
Turning to B2, in series [1] (setting [6]), the AUCINF_pred worked out at 4.5873 µM·h, the “AUC_% Back_Ext_pred” value was determined as 1%, the “AUC_% Extrap_pred” value is listed as 0% and the AUClast is 4578.7 nmol·h/L. Also, in series [1] (setting [6]), the CI_pred is 7.4 mL/h/kg, the Cmax was 625 nM, the HL_Lambda_z came out at 8.3 h and the Tmax stood at 1.98 min. Further, the Vss_pred in series [1] (setting [6]) turned out to be 0.060 L/kg. The EC50 in series [2] is 36.6 nM. Moreover, in series [3], the Kd amounted to 95.9 nM, the “Koff HSA” value was found to be 0.0105 s⁻¹ and the “Kon HSA” value worked out at 110000 M⁻¹ s⁻¹.

B3: MAM279 conjugate: SEQ ID NO: 15 conjugated to DOTAM-maleimide, labelled with Pb-212 (natural lead in PK studies) (conjugate)
chain: GSDLGKKLLEAARAGQDDEVRELLKAGADVNAKDYFSHTPLHLAARNGHLKIVEVLLKAGADVNAKDFAGKTPLHLAADAGHLEIVEVLLKAGADVNAQDIFGKTPADIAADAGHEDIAEVLQKAAGSPTPTPTTPTPTPTTPTPTPTGSDLGKKLLAAAAQGQDDEVRELLKAGANVNAKDLFGYTPLHLAAWRGHLEIVEVLLKAGADVNAKDAAGETPLHLAAWFGHLEIVEVLLKAGADVNAQDLQGKTPADLAAKEGHEDIAEVLQKAAGSGSC
modifications: DOTAM-maleimide, Pb-212 label; Ankyrin repeat protein with tag (GS-MAM279-tag)
On to B3, for which the serum half-life amounted to 39.9 h in series [1] (0.001 mg/kg i.v.), 33.1 h in series [1] (0.01 mg/kg i.v.), 32.8 h in series [1] (0.1 mg/kg i.v.) and 30.5 h in series [1] (1 mg/kg i.v.).
